# Laboratory results published in patent US20220064648.
# Like-named read-outs stand apart in the source and are kept apart here.
# What was measured:
# [1] = target: SNAP25 full length (Homo sapiens) (UniProt P60880); conditions: W indole-dU, X amine-dU, direct ELISA signal
# [2] = test system: Negative control random peptide; test: ELONA; conditions: W indole, X amine
# SNAP25 full length (Homo sapiens), sequence (P60880 whole entry): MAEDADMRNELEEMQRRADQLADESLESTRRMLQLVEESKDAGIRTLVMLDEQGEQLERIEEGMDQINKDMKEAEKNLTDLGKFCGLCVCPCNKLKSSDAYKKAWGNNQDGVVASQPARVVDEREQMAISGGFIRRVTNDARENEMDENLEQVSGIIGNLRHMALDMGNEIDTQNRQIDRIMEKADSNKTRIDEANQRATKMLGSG
sequence,measurement,setting,value
TTTTTAACACGACTGCACTGTGAATCTCGAACGCATCGGGAGTCGTGCCATG [PEP 3.15],binding signal,"[1]; Y phenol-dU [14,25,27,43 (amine-dU), 19,46 (phenol-dU), 36 (indole-dU)], negative peptide 39",9
TTTTTAAGCCCACAAAAGTTCGGGCAGCACAGGTCGCTGAGGTCGTGCCATG [PEP 4.14],binding signal,"[1]; Y phenol-dU [19,38 indole-dU, 20,34,46 phenol-dU, 43 amine-dU], negative peptide 15",2
TTTTTAAGCCCACGCCAGTTCGGTCAACGAACTACGGTGATGTGGGCCCATG [PEP 4.17],binding signal,"[1]; Y phenol-dU [19,20,24,38], negative peptide 0",0
TTTTTAACACGACTTGGGTTCGGAAGGCGAACCGCAGCAATGTGGGCCCATG [PEP 1.22],binding signal,"[1]; Y phenol-dU [amine-dU @14, phenol-dU @15,20, indole-dU @19], negative peptide 2",8
TTTTTAACACGACGTTACTGTGGTCACCACAGGATGAGGCTGTCGTGCCATG [PEP 2.17],binding signal,"[1]; Y phenol-dU [phenol-dU@15,19,35,46, indole-dU@16,24, amine-dU@43], negative peptide 12",2
TTTTTAAGCCCACGGGTCTGTGGTCACCGAACGACGTGGCAGTGGGCCCATG [PEP 2.14],binding signal,"[1]; Y phenol-dU [17,19,24], negative peptide 7",2
TTTTTAAGCCCACGTTTGTTCGGTGGTCACAGCACGCCACGGTCGTGCCATG [PEP 2.08],binding signal,"[1]; Y phenol-dU [15,16,17,19,20,24,27,43,46], negative peptide 9",8
TTTTTAACACGACAGCCCTGTGCAGGCCGAACGGCGTTGATGTCGTGCCATG [PEP 4.12],binding signal,"[1]; Y phenol-dU [19,46 phenol-dU, 38 indole-dU, 43 amine-dU], negative peptide 3",0
TTTTTAACACGACGTGACTGTGAGAGGCACAGTTTGGGGGCGTGGGCCCATG [PEP 4.15],binding signal,"[1]; Y phenol-dU [15,19,34,35 phenol-dU], negative peptide 7",4
TTTTTAACACGACGCCAGTTCGAAGGTCACAGTTATTTGGCGTCGTGCCATG [PEP 1.11],binding signal,"[1]; Y phenol-dU [19 indole-dU, 20 phenol-dU, 27 amine-dU, 34 phenol-dU, 36 indole-dU, 38 indole-dU, 43 amine-dU, 46 phenol-dU], negative peptide 11",4
TTTTTAACACGACACCACTGTGCCCACCACAGTTCACTGAAGTGGGCCCATG [PEP 3.14],binding signal,"[1]; Y phenol-dU [19,34 (phenol-dU), 38 (indole-dU)], negative peptide 52",8
TTTTTAACACGACAGCACTGTGGTTCGCGAACCTCAAGCTCGTCGTGCCATG [PEP 3.02],binding signal,"[2]; Y phenol modified dU [19Y,24W,25X,34Y,40W,43X,46Y]",59 ELISA signal
TTTTTAAGCCCACCAGGGTTCGGGAGCCGAACGCCAGCACTGTCGTGCCATG [PEP 3.24],binding signal,"[1]; Y phenol-dU [19 (indole-dU), 20,46 (phenol-dU), 43 (amine-dU)], negative peptide 22",5
TTTTTAAGCCCACATACGTTCGATGGTCACAGATTGGGCAAGTCGTGCCATG [PEP 2.02],binding signal,"[2]; Y phenol modified dU [15,19,20,24,27,34,35,43,46]",55 ELISA signal
TTTTTAACACGACCATTCTGTGCCAGCCGAACTCCGTGCTGGTGGGCCCATG [PEP 4.08],binding signal,"[1]; Y phenol-dU [16,17,40 indole-dU, 19 phenol-dU], negative peptide 5",9
TTTTTAACACGACGCTCCTGTGACAGCCGAACATCATTGGTGTCGTGCCATG [PEP 1.04],binding signal,"[1]; Y phenol-dU [16 indole-dU, 19 phenol-dU, 34 phenol-dU, 38 indole-dU, 43 amine-dU, 46 phenol-dU], negative peptide 4",5
TTTTTAACACGACAGCACTGTGCACAGCACAGCTCAAGGGTGTGGGCCCATG [PEP 3.10],binding signal,"[1]; Y phenol-dU [phenol-dU@19,34], negative peptide 51",10
TTTTTAACACGACCATCCTGTGCCTCACGAACTCATTGCCCGTCGTGCCATG [PEP 1.02],binding signal,"[2]; Y phenol modified dU [16,19,25,36,43,46]",15 ELISA signal
TTTTTAAGCCCACCTCACTGTGCAAGTCACAGGTCGGCACCGTGGGCCCATG [PEP 3.23],binding signal,"[1]; Y phenol-dU [15,19,34 (phenol-dU), 27 (amine-dU)], negative peptide 35",5
TTTTTAAGCCCACCTGACTGTGGTGGGCACAGTTCGCCATCGTGGGCCCATG [PEP 1.14],binding signal,"[1]; Y phenol-dU [15 phenol-dU, 19 phenol-dU, 24 indole-dU, 34 phenol-dU, 40 indole-dU], negative peptide 5",2
TTTTTAACACGACATAGCTGTGACAGGCACAGGTCATGGGAGTCGTGCCATG [PEP 1.19],binding signal,"[1]; Y phenol-dU [phenol-dU @15,19,34,46, amine-dU @43], negative peptide 3",0
TTTTTAAGCCCACACGTGTTCGGATCGCACAGTTATTGGCAGTCGTGCCATG [PEP 4.20],binding signal,"[1]; Y phenol-dU [17,19,20,25,34,36,43,46], negative peptide 3",4
TTTTTAAGCCCACTTCACTGTGGCTCGCACAGGCCGATGGGGTCGTGCCATG [PEP 1.23],binding signal,"[1]; Y phenol-dU [amine-dU @14,25,43, phenol-dU @15,19,46, indole-dU @38], negative peptide 0",0
TTTTTAAGCCCACGGGTGTTCGACAGACACAGCAATACATCGTGGGCCCATG [SNAP.03],binding signal,"[2]; Y phenol modified dU [17,19,20,36,40]",21 ELISA signal
TTTTTAAGCCCACATGCCTGTGGTCATCGAACATTGGGCCGGTCGTGCCATG [PEP 2.13],binding signal,"[1]; Y phenol-dU [15,19,24,27,34,35,43,46], negative peptide 11",0
TTTTTAAGCCCACCCGAGTTCGTCCAGCGAACCACGCGCGTGTCGTGCCATG [PEP 4.11],binding signal,"[2]; Y phenol modified dU [19,20,23,43,46]",0 ELISA signal
TTTTTAAGCCCACAAGCGTTCGGCTCTCATAGATCGTTGACGTGGGCCCATG [PEP 4.19],binding signal,"[1]; Y phenol-dU [19,20,25,27,34,38], negative peptide 0",0
TTTTTAAGCCCACGGTGCTGTGGAAGCCACAGTACAATGGAGTGGGCCCATG [PEP 4.22],binding signal,"[1]; Y phenol-dU [16,19,38], negative peptide 3",5
TTTTTAACACGACGTTACTGTGGTCATCACAGGATGAGCCTGTCGTGCCATG [PEP 2.18],binding signal,"[1]; Y phenol-dU [phenol-dU@15,19,35,46, indole-dU@16,24, amine-dU@27,43], negative peptide 9",0
TTTTTAACACGACCGCCCTGTGGGCAACACAGGGATCTGCAGTCGTGCCATG [PEP 1.24],binding signal,"[1]; Y phenol-dU [phenol-dU @19,46, indole-dU @36,38, amine-dU @43], negative peptide 9",8
TTTTTAACACGACGTTACTGTGGTCACCACAGGATGAGCCTGTCGTGCCATG [PEP 2.01],binding signal,"[2]; Y phenol modified dU [15,16,19,24,35,43,46]",204 ELISA signal
TTTTTAACACGACGTCGCTGTGGTCAACGAACAGATACAACGTCGTGCCATG [PEP 2.07],binding signal,"[1]; Y phenol-dU [15,19,24,36,43,46], negative peptide 17",8
TTTTTAACACGACATAGGTTCGCTGGTCACAGAATGTTGTGGTGGGCCCATG [PEP 2.09],binding signal,"[1]; Y phenol-dU [15,19,20,24,27,35,38,40], negative peptide 5",9
TTTTTAAGCCCACGACACTGTGGCCAACACAGTACATGCATGTGGGCCCATG [PEP 3.07],binding signal,"[1]; Y phenol-dU [phenol-dU@19], negative peptide 64",10
TTTTTAAGCCCACTGGCCTGTGGTCAGCGAACTGTGCGCTGGTGGGCCCATG [PEP 2.10],binding signal,"[1]; Y phenol-dU [14,19,24,35,40], negative peptide 2",7
TTTTTAACACGACGTTACTGTGGTCACCACAGGATGAGCTTGTCGTGCCATG [PEP 2.15],binding signal,"[1]; Y phenol-dU [15,16,19,24,35,40,43,46], negative peptide 9",0
TTTTTAAGCCCACGGCCGTTCGGCCACCACAGTGTGGCAGCGTCGTGCCATG [PEP 4.13],binding signal,"[1]; Y phenol-dU [19 indole-dU, 20,35,46 phenol-dU, 43 amine-dU], negative peptide 0",0
TTTTTAAGCCCACTTGGCTGTGCACATCACAGAACAAGCAGGTGGGCCCATG [PEP 2.11],binding signal,"[1]; Y phenol-dU [14,15,19,27], negative peptide 2",0
TTTTTAACACGACATATGTTCGACGGACACAGTGTGTGGCGGTCGTGCCATG [PEP 4.09],binding signal,"[2]; Y phenol modified dU [15,17,19,20,35,43,46]",0 ELISA signal
TTTTTAAGCCCACGGGGCTGTGAGCAACGAACATTGGCACAGTCGTGCCATG [PEP 4.21],binding signal,"[1]; Y phenol-dU [19,34,35,43,46], negative peptide 8",0
TTTTTAAGCCCACATAGGTTCGGTGGTCACAGTGTGGTGCGGTGGGCCCATG [PEP 2.16],binding signal,"[1]; Y phenol-dU [15,19,20,24,27,35,38], negative peptide 5",4
TTTTTAACACGACATCACTGTGGAAGACACAGGACGTGCGTGTCGTGCCATG [PEP 3.22],binding signal,"[1]; Y phenol-dU [15,19,46 (phenol-dU), 43 (amine-dU)], negative peptide 26",7
TTTTTAACACGACTATTCTGTGAGTCTCGAACTGCGACAACGTGGGCCCATG [PEP 4.18],binding signal,"[1]; Y phenol-dU [14,16,17,19,25,27], negative peptide 4",10
